Laboratory results reported in the RNAGym collection of RNA variant scans (doi:10.1093/nar/gkz1192).

B1: CPEB3 Ribozyme (parent)
chain: UAACAGGGGGCCACAGCAGAAGCGUUCACGUCGCAGCCCCUGUCAGAUUCUGGUGAAUCUGCGAAUUCUGCUGUAUAUCUC

Variants of: B1
Assay: self-cleavage, relative activity (ratio to wild type); higher = more cleavage; in vitro, sequencing
How it was run: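 After error-prone PCR and barcoding, CPEB3 ribozyme mutant libraries were transcribed with T7 RNA polymerase at 37°C for 5 hours, then given 15 min with DNase I before an EDTA stop, and they cleaved during both steps. Reverse transcription with template switching preceded Illumina sequencing. Relative activity divides a variant's cleaved/total read fraction by the unmutated ribozyme's. At least 5 reads were required per variant, and three batches were averaged.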

| Variant | self-cleavage |
| --- | --- |
| U41A C79A | 0.32 |
| U41A C79U | 0.41 |
| U41A C79G | 0.37 |
| C40U G73C | 1.22 |
| C40U A45U | 0.15 |
| C40U A45G | 0.55 |
| C40U A45C | 0.17 |
| C39U U51A | 1.06 |
| C39U U51G | 0.89 |
| C39U U72C | 0.71 |
| C39U U72G | 1.06 |
| C39U U72A | 0.98 |
| C40A U54A | 0.29 |
| C40A U54C | 0.28 |
| C40A U58C | 0.1 |
| C39A G73C | 0.76 |
| U41A C44A | 0.15 |
| U41A C44U | 0.23 |
| C39G A47G | 0.13 |
| C39A U58C | 0.19 |
| C40U U54C | 0.7 |
| C40U U54A | 1.08 |
| C40U U54G | 0.6 |
| C39A U49A | 0.23 |

| Variant | self-cleavage |
| --- | --- |
| C39G U48A | 0.15 |
| C40G U72C | 0.48 |
| C40G U72G | 0.16 |
| C39A C40U | 0.38 |
| C40G U78C | 0.38 |
| U41A A47C | 0.18 |
| U41A A47U | 0.3 |
| U41A A47G | 0.29 |
| C40U A56C | 0.32 |
| C40U A56U | 0.32 |
| C40U A56G | 0.48 |
| C40A A75G | 0.47 |
| C40A A75U | 0.43 |
| C40U A65G | 0.27 |
| C40U A65U | 0.37 |
| C40G | 0.29 |
| C40A | 0.28 |
| C40U | 0.76 |
| C40U A75U | 0.74 |
| C40U A75G | 0.5 |
| C40A C50A | 0.27 |
| C40A C50U | 0.22 |
| U41A U76G | 0.22 |
| U41A U76A | 0.16 |

| Variant | self-cleavage |
| --- | --- |
| U41A U76C | 0.27 |
| C39A U78A | 0.43 |
| C39A U78C | 0.26 |
| C39A U43A | 0.38 |
| C39A U43C | 0.4 |
| C40G U60A | 0.11 |
| C40G U60C | 0.16 |
| C40G A65G | 0.35 |
| C40G U54C | 0.2 |
| C40G U54G | 0.29 |
| C40U U74C | 1.08 |
| C40U U74G | 1.04 |
| C40G U66C | 0.22 |
| U41A G70U | 0.12 |
| U41A G61U | 0.24 |
| C40U U78C | 0.56 |
| C40U U78A | 0.75 |
| U41A G55A | 0.19 |
| U41A G55C | 0.34 |
| U41A G55U | 0.2 |
| C39A G70A | 0.11 |
| C40U A57G | 0.36 |
| C40U A57C | 0.46 |
| C40U A57U | 0.61 |

| Variant | self-cleavage |
| --- | --- |
| U41A G63A | 0.35 |
| U41A G63U | 0.3 |
| U41A G63C | 0.26 |
| C40G A77G | 0.08 |
| C39A U48A | 0.21 |
| C39A U48C | 0.12 |
| C40U U43C | 0.39 |
| C40U U43A | 0.92 |
| C39G U49C | 0.12 |
| C40G U48C | 0.13 |
| C40G U48A | 0.67 |
| U41A U67A | 0.36 |
| U41A U67C | 0.21 |
| U41A U67G | 0.18 |
| C40U G46A | 0.18 |
| U41A C62U | 0.16 |
| U41A C62A | 0.34 |
| C39U A47G | 0.48 |
| C39U A47U | 0.42 |
| C40A U69G | 0.11 |
| C40A U69C | 0.25 |
| C39U U49C | 0.31 |
| U41A G53C | 0.23 |
| U41A G53A | 0.38 |

| Variant | self-cleavage |
| --- | --- |
| C40A U49A | 0.18 |
| C39U U74C | 1.1 |
| C39U U74A | 1.08 |
| C40U G70U | 0.16 |
| C39U C62A | 0.35 |
| C39U A56G | 0.48 |
| C39U A56U | 0.32 |
| C40U U49A | 0.2 |
| C40U U49C | 0.36 |
| U41A U51C | 0.31 |
| U41A U51A | 0.36 |
| U41A U51G | 0.42 |
| C40U U48C | 0.25 |
| C39A U41C | 0.35 |
| C39A U41A | 0.27 |
| U41A C81G | 0.25 |
| U41A C81U | 0.25 |
| U41A C81A | 0.22 |
| C39A U72C | 0.32 |
| C39A U72A | 0.35 |
| C40A U67C | 0.28 |
| C40A A57G | 0.22 |
| C39A U74A | 0.53 |
| C39A U74C | 0.49 |

| Variant | self-cleavage |
| --- | --- |
| C40U U41C | 0.92 |
| C40U U41A | 0.25 |
| C40U U41G | 0.16 |
| C39U U66C | 0.37 |
| C40G A56U | 0.42 |
| U41A | 0.3 |
| C39A U54A | 0.16 |
| C39A U54C | 0.25 |
| C40G U80C | 0.19 |
| C40U U67C | 0.23 |
| U41A A64U | 0.29 |
| U41A A64C | 0.15 |
| U41A A64G | 0.28 |
| C39G A57G | 0.19 |
| U41A U74C | 0.4 |
| U41A U74A | 0.29 |
| C40U C68G | 0.28 |
| C39A A57C | 0.14 |
| C39A A57G | 0.3 |
| C40A U48C | 0.18 |
| C40A U48A | 0.15 |
| U41A C59A | 0.13 |
| U41A C59U | 0.06 |
| C39G A65G | 0.17 |

| Variant | self-cleavage |
| --- | --- |
| C40A G42U | 0.31 |
| C40A A47G | 0.21 |
| C40A A47C | 0.17 |
| C39U G46U | 0.11 |
| C40U U60C | 0.3 |
| C40U U60A | 0.34 |
| C40U U60G | 0 |
| U41A U72C | 0.28 |
| U41A U72A | 0.23 |
| U41A U72G | 0.21 |
| C40U A47U | 0.32 |
| C40U A47G | 0.5 |
| C40U C50A | 0.46 |
| C39U U67C | 0.21 |
| C39U U54A | 0.95 |
| C40A U76A | 0.28 |
| C40A U76C | 0.38 |
| U41A A65G | 0.25 |
| U41A A65U | 0.17 |
| C40U A77C | 0.74 |
| C40U A77U | 0.81 |
| C40U A77G | 0.58 |
| C39U A45U | 0.26 |
